Reference: the supplement of paper PMC11246515
± gives the standard deviation of the averaged measurements.

Test: total protein half-life in vivo (active degradation + dilution); higher = more stable protein
[1] = E. coli NCM3722 delta-clpP delta-lon delta-hslV, growth: N-lim chemostat, doubling time 6 h
[2] = E. coli NCM3722 delta-clpP, growth: N-lim chemostat, doubling time 6 h
[3] = E. coli NCM3722 delta-hslV, growth: N-lim chemostat, doubling time 6 h
[4] = E. coli NCM3722 delta-lon, growth: N-lim chemostat, doubling time 6 h
[5] = E. coli NCM3722 delta-smpB, growth: N-lim chemostat, doubling time 6 h
[6] = wild type E. coli NCM3722, growth: C-lim chemostat, doubling time 3 h
[7] = wild type E. coli NCM3722, growth: C-lim chemostat, doubling time 6 h
[8] = wild type E. coli NCM3722, growth: C-lim chemostat, doubling time 12 h
[9] = wild type E. coli NCM3722, growth: N-lim chemostat, doubling time 6 h
[10] = wild type E. coli NCM3722, growth: N-lim chemostat, doubling time 12 h
[11] = wild type E. coli NCM3722, growth: P-lim chemostat, doubling time 6 h
[12] = wild type E. coli NCM3722, growth: P-lim chemostat, doubling time 12 h

Row | Sequence | total protein half-life in vivo [1] [h] | total protein half-life in vivo [2] [h] | total protein half-life in vivo [3] [h] | total protein half-life in vivo [4] [h] | total protein half-life in vivo [5] [h] | total protein half-life in vivo [6] [h] | total protein half-life in vivo [7] [h] | total protein half-life in vivo [8] [h] | total protein half-life in vivo [9] [h] | total protein half-life in vivo [10] [h] | total protein half-life in vivo [11] [h] | total protein half-life in vivo [12] [h]
1 | MVKKAIVTAMAVISLFTLMGCNNRAEVDTLSPAQAAELKPMPQSWRGVLPCADCEGIETSLFLEKDGTWVMNERYLGAREEPSSFASYGTWARTADKLVLTDSKGEKSYYRAKGDALEMLDREGNPIESQFNYTLEAAQSSLPMTPMTLRGMYFYMADAATFTDCATGKRFMVANNAELERSYLAARGHSEKPVLLSVEGHFTLEGNPDTGAPTKVLAPDTAGKFYPNQDCSSLGQ | 5.34 ± 0.088 | 5.68 ± 0.11 | 5.99 ± 0.23 | 6.787 ± 0.0084 | 5.976 ± 0.058 | 3.13 ± 0.2 | 6.4 ± 0.79 | 10.7 ± 0.25 | 6.083 ± 0.0085 | 11.5 ± 0.38 | 5.63 ± 0.41 | 
2 | MVLQSTRWLALGYFTYFFSYGIFLPFWSVWLKGIGLTPETIGLLLGAGLVARFLGSLLIAPRVSDPSRLISALRVLALLTLLFAVAFWAGAHVAWLMLVMIGFNLFFSPLVPLTDALANTWQKQFPLDYGKVRLWGSVAFVIGSALTGKLVTMFDYRVILALLTLGVASMLLGFLIRPTIQPQGASRQQESTGWSAWLALVRQNWRFLACVCLLQGAHAAYYGFSAIYWQAAGYSASAVGYLWSLGVVAEVIIFALSNKLFRRCSARDMLLISAICGVVRWGIMGATTALPWLIVVQILHCGTFTVCHLAAMRYIAARQGSEVIRLQAVYSAVAMGGSIAIMTVFAGFLYQYLGHGVFWVMALVALPAMFLRPKVVPSC |  |  |  | 6.67 | 4.51 |  | 2.77 | 10.4 ± 0.17 |  |  |  | 
3 | MVLWQSDLRVSWRAQWLSLLIHGLVAAVILLMPWPLSYTPLWMVLLSLVVFDCVRSQRRINARQGEIRLLMDGRLRWQGQEWSIVKAPWMIKSGMMLRLRSDGGKRQHLWLAADSMDEAEWRDLRRILLQQETQR | 6.03 ± 0.068 | 5.69 |  | 4.15 ± 0.083 |  | 3.47 | 5.64 ± 1.5 | 6.78 | 5.67 | 9.7 | 3.85 ± 0.56 | 7.57
4 | MVRIYTLTLAPSLDSATITPQIYPEGKLRCTAPVFEPGGGGINVARAIAHLGGSATAIFPAGGATGEHLVSLLADENVPVATVEAKDWTRQNLHVHVEASGEQYRFVMPGAALNEDEFRQLEEQVLEIESGAILVISGSLPPGVKLEKLTQLISAAQKQGIRCIVDSSGEALSAALAIGNIELVKPNQKELSALVNRELTQPDDVRKAAQEIVNSGKAKRVVVSLGPQGALGVDSENCIQVVPPPVKSQSTVGAGDSMVGAMTLKLAENASLEEMVRFGVAAGSAATLNQGTRLCSHDDTQKIYAYLSR | 5.23 ± 0.52 | 4.483 ± 0.036 | 4.05 ± 0.088 | 4.74 ± 0.28 | 3.8 ± 0.18 | 3.32 ± 0.21 | 6.09 ± 0.64 | 10.7 ± 1.1 | 4.436 ± 0.02 | 6.92 ± 0.5 | 5.84 ± 0.18 | 11.864 ± 0.0075
5 | MVRRLTSPRLEFEAAAIYEYPEHLRSFLNDLPTRPGVYLFHGESDTMPLYIGKSVNIRSRVLSHLRTPDEAAMLRQSRRISWICTAGEIGALLLEARLIKEQQPLFNKRLRRNRQLCALQLNEKRVDVVYAKEVDFSRAPNLFGLFANRRAALQALQTIADEQKLCYGLLGLEPLSRGRACFRSALKRCAGACCGKESHEEHALRLRQSLERLRVVCWPWQGAVALKEQHPEMTQYHIIQNWLWLGAVNSLEEATTLIRTPAGFDHDGYKILCKPLLSGNYEITELDPANDQRAS | 5.53 ± 1.1 |  | 1.43 |  | 0.89 | 1.06 |  | 1.93 | 1.6 ± 0.079 |  | 1.28 | 
6 | MVSALYAVLSALLLMKFSFDVVRLRMQYRVAYGDGGFSELQSAIRIHGNAVEYIPIAIVLMLFMEMNGAETWMVHICGIVLLAGRLMHYYGFHHRLFRWRRSGMSATWCALLLMVLANLWYMPWELVFSLR | > 8 |  | > 8 | 6.32 | 7.19 ± 0.64 | 3.51 ± 0.12 | 7.27 | 13.7 |  | > 16 | 6.53 ± 0.12 | 13.1 ± 1.1
7 | MVSKPFQRPFSLATRLTFFISLATIAAFFAFAWIMIHSVKVHFAEQDINDLKEISATLERVLNHPDETQARRLMTLEDIVSGYSNVLISLADSQGKTVYHSPGAPDIREFTRDAIPDKDAQGGEVYLLSGPTMMMPGHGHGHMEHSNWRMINLPVGPLVDGKPIYTLYIALSIDFHLHYINDLMNKLIMTASVISILIVFIVLLAVHKGHAPIRSVSRQIQNITSKDLDVRLDPQTVPIELEQLVLSFNHMIERIEDVFTRQSNFSADIAHEIRTPITNLITQTEIALSQSRSQKELEDVLYSNLEELTRMAKMVSDMLFLAQADNNQLIPEKKMLNLADEVGKVFDFFEALAEDRGVELRFVGDKCQVAGDPLMLRRALSNLLSNALRYTPTGETIVVRCQTVDHLVQVIVENPGTPIAPEHLPRLFDRFYRVDPSRQRKGEGSGIGLAIVKSIVVAHKGTVAVTSDARGTRFVITLPA | 6.87 ± 0.17 | 6.49 ± 0.093 | 5.99 ± 1.1 | 5.94 ± 0.29 | 5.79 ± 0.62 | 3.52 ± 0.32 | 6.15 ± 0.53 | 12.5 ± 1.1 | 5.98 ± 0.11 | 11.78 ± 0.088 | 6.28 ± 0.53 | 12.6 ± 0.38
8 | MVSNASALGRNGVHDFILVRATAIVLTLYIIYMVGFFATSGELTYEVWIGFFASAFTKVFTLLALFSILIHAWIGMWQVLTDYVKPLALRLMLQLVIVVALVVYVIYGFVVVWGV [P0AC44] |  |  | 6.12 ± 0.19 |  |  | 3.03 ± 0.042 | 6.01 ± 0.4 | 12 ± 4.5 | 5.87 ± 0.39 |  |  | 12.5
9 | MVSRKRNSVIYRFASLLLVLMLSACSALQGTPQPAPPVTDHPQEIRRDQTQGLQRIGSVSTMVRGSPDDALAEIKAKAVAAKADYYVVVMVDETIVTGQWYSQAILYRK | 5.47 ± 0.3 | 6.25 ± 1 | 7.06 | 6.07 ± 0.52 | 5.58 ± 0.19 | 3.29 ± 0.23 |  | 11.6 ± 1.4 | 6.049 ± 0.053 |  | 7.24 ± 1.1 | 14.8
